# In article PMC2566870:
# How the values were obtained:
# Experiment in all cases: SEC
# [1] = biological target: Hera_CTD (C-terminal domain of Hera, amino acids 370-511) (Thermus thermophilus HB27)
# [2] = biological target: Hera_E115C/R260C (Thermus thermophilus HB27)
# [3] = biological target: Thermus thermophilus DEAD box helicase Hera, wild-type (Thermus thermophilus HB27) (UniProt Q72GF3)
# [4] = biological target: Hera_core_E115C/R260C (Thermus thermophilus HB27)
# [5] = biological target: Hera_core (aa 1-365) (Thermus thermophilus HB27)
substance,measurement,setting,value
"Hera_CTD (C-terminal domain of Hera, amino acids 370-511) (domain or fragment)",stoichiometry N,[1],2
Hera_E115C/R260C (enzyme),stoichiometry N,[2],2
"Thermus thermophilus DEAD box helicase Hera, wild-type (from UniProt Q72GF3 1-517) (enzyme)",stoichiometry N,[3],2
Hera_core_E115C/R260C (domain or fragment),stoichiometry N,[4],2
Hera_core (aa 1-365) (domain or fragment),stoichiometry N,[5],2
